From the DeepSol protein solubility set

Assay: soluble on expression in E. coli; label from the status in PepcDB or PDB records

| Sequence | soluble on expression in E. coli |
| --- | --- |
| MKVLILRPAELLSETIRRFREEGFDAYGCPFIKLIYTDFDVPEHDFAIVTSQNAARVLRERGVRLKRVIAIGKKTAELIEAEEVLLPSKFDSETLYEEFAEMLRGKRVVAFRSNAGSEAVKRLSEVADFREIQVYRIEKLQGEEQRREVEKVREGFYDAIVFSSSMIARSLLELCDEKCLEALKNIFVVAIGPPTAKVLAEKGIRAEIPEEYTFDGVIELLKSKKMLEHHHHHH | soluble |
| MAHHHHHHMIDDVRICHLVLQDVKERLPLYESRLEAVNNSHVVISCWNESVKAFVPVPVAEDVEFTSDVLHEVVSLVDGLRQLGCTDFFVVFVDSGGTLSFYHVDTLRLLQSGRSGSS | not soluble |
| MSLTIPGVVIIGGAHGTLALARSLGVLNVPVYYLTHDSPLPGWSRFVRETIRWAGPHDDGAMAFLREMAEKPGLKGCLLVPSGDGEVQLVSQHREELSALYKIILPEWTNLQWLCEKPLLYKRAAELGVSIPRTYALTSAADIDGLDVMFPVILKPHMGGGNTSIARAKVIRADDREELKAAFVDASGEIGPDNVVVQELIPGGGESQFSYAALWLNGEPIAEFTARRARQYPVDFGYTSTRVEVVDNRQAIEAARKILKSAGHSGLVEVEFKLDGRDGALKLLDVNPRPWSWFGLCSAAGINLGGLLWRVANEGHHHHHH | soluble |
| MLSNQQIRNFSRGVGHLRRRAAKNNVIKVRPEELRPFFNQYSVLPNGIQNDADAKLFSKELQPGERKLLFDALRKITADQYNDHKKVVEVTIDHEDLVKVWYINFIPMFVYGCLDEAFLIIGGESINK | not soluble |
| MGSDKIHHHHHHMKAKAAFFDIDGTLYREGLISEVFKKLIKYEIIDEEKWYKEVRPEFEKWDNRKGDYDDYLLKMTEIYVDALNGLSKSQVEFIASQVVNQKGERVYTYTRDRIKWHKERGHKIITISGSPIELVRNMAEKYGFDDYRGAEYLLDENDVYTGEVIPMWDSKSKERAVHELEAKYNIDLGESYAYGDTSGDLTMLKMVGNPVCINPTKELVKEILSAAAVKNKIRIIVERKDMIYKISSRCLECDCEFVL | not soluble |
| MAHHHHHHMVKVKTISRSHLEWTKDRNGEVPRVNRNFDTKYNPMAKQTEFTRAIRAAKLDRMFAKPFVGALSGHHDTIQSVAVDYTSLSTVVSGAFDGGIIVWDVFTKRPKAIVDAHRHSVDGLVLSTDGVACFSASRDKVVKMWDLDFPSDDSKVEPLAEYLGEFPFSSIDHHFHKSIFVTSSDAVHLWDVNRTQPLQRFSWGDDTVSCCQFNKVETELVACCMSDRGVFIYDTRTKASHSKIIMEMCCTSVAWNPMDPNTFVTGSDDRNCYLFDMRVPGRPKSVFQGHINGITSVDFCPTGKKFVAGSLDATLRMWDIHQTTKSNSIEMYHTKRMAKVFSVKWSPDSSYIYSGSEDAILRVWKADASKPVRPLRGPERSSFNYMRSLKDRYSGFVEVRRIANQRNTPKAISRAQLRGKKAEKREFVKEASRRKHDDIKPLAQRKVYQSLN | not soluble |
| MAHHHHHHMNLIVHDLDFMKRILLNDERKWGEESAPGEGRTESSHQPKIITIVLNNTLCAHSAKFIANSDVLICADGGANRLYNLCQSLATERGAIDDEGSSLKGEEDKNTALHASHTNERSHHVSGRHTISDLFNMPVEKKEKALKRPTEIVPHIICGDFDSINAHVYSYYKNKSVIFEKCANQENTDLDKCIDVIRGYIRTNDKILILGATGNRFDHTCANISCLYKNASLNSLYLIGENNFLFLLQQGSHIIHVSPDVFCKGCGILPFGGKCTIKTEGLKYNLNDECLSFDTLISSSNEVVQREVKIFNDSPVVWSAQLI | not soluble |
| MGSDKIHHHHHHMEAEIELKLFFPENKREALVSLLNSLPHSDAKGAIHLTNSYYDTPDLQLRRWDMGLRIRGRDGQFEQTIKTAGTVVGGVHSRPEYNIDIDQAKVNLSLFPTEIWPEGAEIGPVQDALVSLFDTDFTRMSWHIYLDESLVEVALDIGSISANGQCEPICELEFELLAGDAQALLALAERVTEQIPARLGRASKAQRGYRLAAMASPLQLDTLAFIALPKKGTPKQALVTLLETGLDRWQLLEEMLLESRQAARQLPLLGYRLRACIRLLRCTLAQFSLLDDKLLQAFDAIESQLSFVDKGLSLCELLDGDGALLSNLSEPEGLLDAVRHELAALEMPQKIDAMLNHVTYGQLQVRLVSLLMAVNAGQVYISEQQSLQAFADRLQEASWQQIVDLMPSNAELSSEDYQSFAKALDESILVGVAYGELYKHKSRDQFRAPWQDLVLGIRTLGAYHSLRQTAATQGRDIDDWLDSKEQSLLFAMEHSRRSALKVQPYWR | not soluble |
| MDRFHATSADCCISYTPRSIPCSLLESYFETNSECSKPGVIFLTKKGRRFCANPSDKQVQVCMRMLKLDTRIKTRKN | soluble |
